Measured values reported in patent US12227771B2, “Expression systems and methods of use thereof” (Janssen Pharmaceutica NV, priority 2019, dated 2025).

B1: TMEM132D: Transmembrane protein 132D, SEQ ID NO: 7, co-transfected cDNA clone (protein, listed as Homo sapiens)
chain: MCPSEMGTLWHHWSPVLISLAALFSKVTEGRGILESIQRFSLLPTYLPVTYHINNADVSFFLKEANQDIMRNSSLQSRVESFLIYKSRRLPVLNASYGPFSIEQVVPQDLMLPSNPFGFTNKFSLNWKLKAHILRDKVYLSRPKVQVLFHIMGRDWDDRSAGEKLPCLRVFAFRETREVRGSCRLQGDLGLCVAELELLSSWFSPPTVVAGRRKSVDQPEGTPVELYYTVHPGGERGDCVREDARRSNGIRTGHSDIDESGPPLQRIGSIFLYQTHRKPSLRELRLDNSVAIHYIPKTVRKGDVLTFPVSISRNSTEDRFTLRAKVKKGVNIIGVRASSPSIWDVKERTDYTGKYAPAVIVCQKKAAGSENSADGASYEVMQIDVEVEEPGDLPATQLVTWQVEYPGEITSDLGVSKIYVSPKDLIGVVPLAMEAEILNTAILTGKTVAVPVKVVSVEDDGTVTELLESVECRSSDEDVIKVSDRCDYVFVNGKEMKGKVNVVVNFTYQHLSSPLEMTVWVPRLPLQIEVSDTELNQIKGWRVPIVSSRRPAGDSEEEEDDERRGRGCTLQYQHAMVRVLTQFVAEAAGPGGHLAHLLGSDWQVDITELINDFMQVEEPRIAKLQGGQILMGQELGMTTIQILSPLSDTILAEKTITVLDEKVTITDLGVQLVTGLSLSLQLSPGSNRAIFATAVAQELLQRPKQEAAISCWVQFSDGSVTPLDIYDGKDFSLMATSLDEKVVSIHQDPKFKWPIIAAETEGQGTLVKVEMVISESCQKSKRKSVLAVGTANIKVKFGQNDANPNTSDSRHTGAGVHMENNVSDRRPKKPSQEWGSQEGQYYGSSSMGLMEGRGTTTDRSILQKKKGQESLLDDNSHLQTIPSDLTSFPAQVDLPRSNGEMDGNDLMQASKGLSDLEIGMYALLGVFCLAILVFLINCVTFALKYRHKQVPFEEQEGMSHSHDWVGLSNRTELLENHINFASSQDEQITAIDRGMDFEESKYLLSTNSQKSINGQLFKPLGPIIIDGKDQKSEPPTSPTSKRKRVKFTTFTAVSSDDEYPTRNSIVMSSEDDIKWVCQDLDPGDCKELHNYMERLHENV
B2: TMEM132E: Transmembrane protein 132E, SEQ ID NO: 8, co-transfected cDNA clone (protein, listed as Homo sapiens)
chain: MAPGMSGRGGAALLCLSALLAHASGRSHPASPSPPGPQASPVLPVSYRLSHTRLAFFLREARPPSPAVANSSLQRSEPFVVFQTKELPVLNVSLGPFSTSQVVARELLQPSSTLDIPERLTVNWKVRAFIVRSHVPASQPVVQVLFYVAGRDWDDFGVTERLPCVRLHAFRDAREVKSSCRLSGGLATCLVRAELPLAWFGPPAPAAPPTARRKSPDGLEPEATGESQQAELYYTLHAPDASGGCGGSRRGAGPGVGARAESPTQHPLLRIGSISLFRPPPRRTLQEHRLDSNLMIRLPDRPLKPGEVLSILLYLAPNSSSPSSPSVEHFTLRVKAKKGVTLLGTKSRSGQWHVTSELLTGAKHSTATVDVAWAQSTPLPPREGQGPLEILQLDFEMENFTSQSVKRRIMWHIDYRGHGALPDLERAVTELTVIQRDVQAILPLAMDTEIINTAILTGRTVAIPVKVIAIEVNGLVLDISALVECESDNEDIIKVSSSCDYVFVSGKESRGSMNARVTFRYDVLNAPLEMTVWVPKLPLHIELSDARLSQVKGWRVPILPDRRSVRESEDEDEEEEERRQSASRGCTLQYQHATLQVFTQFHTTSSEGTDQVVTMLGPDWLVEVTDLVSDFMRVGDPRVAHMVDSSTLAGLEPGTTPFKVVSPLTEAVLGETLLTVTEEKVSITQLQAQVVASLALSLRPSPGSSHTILATTAAQQTLSFLKQEALLSLWLSYSDGTTAPLSLYSPRDYGLLVSSLDEHVATVTQDRAFPLVVAEAEGSGELLRAELTIAESCQKTKRKSVLATTPVGLRVHFGRDEEDPTYDYPGPSQPGPGGGEDEARGAGPPGSALPAPEAPGPGTASPVVPPTEDFLPLPTGFLQVPRGLTDLEIGMYALLGVFCLAILVFLINCIVFVLRYRHKRIPPEGQTSMDHSHHWVFLGNGQPLRVQGELSPPAGNPLETVPAFCHGDHHSSGSSQTSVQSQVHGRGDGSSGGSARDQAEDPASSPTSKRKRVKFTTFTTLPSEELAYDSVPAGEEDEEEEEDLGWGCPDVAGPTRPTAPPDLHNYMRRIKEIA
B3: TMEM100: Transmembrane protein 100, SEQ ID NO: 9, co-transfected cDNA clone (protein, listed as Homo sapiens)
chain: MTEEPIKEILGAPKAHMAATMEKSPKSEVVITTVPLVSEIQLMAATGGTELSCYRCIIPFAVVVFIAGIVVTAVAYSFNSHGSIISIFGLVVLSSGLFLLASSALCWKVRQRSKKAKRRESQTALVANQRSLFA

What follows are molecules tested against T1, human α9α10 nAChR (Homo sapiens, UniProt Q9GZZ6+Q9UGM1) (assay: FLIPR calcium assay of HEK293T cells co-transfected with α9α10 nAChR and cDNA clones, response evoked by 200 μM ACh). Conditions: HEK293T co-transfected with α9α10 nAChR + CHAT plus the named gene; 200 μM ACh, 180 s.
T1 construct: expressed in transfected cells; host or cells: HEK293T
T1 sequence (Q9UGM1 23-479): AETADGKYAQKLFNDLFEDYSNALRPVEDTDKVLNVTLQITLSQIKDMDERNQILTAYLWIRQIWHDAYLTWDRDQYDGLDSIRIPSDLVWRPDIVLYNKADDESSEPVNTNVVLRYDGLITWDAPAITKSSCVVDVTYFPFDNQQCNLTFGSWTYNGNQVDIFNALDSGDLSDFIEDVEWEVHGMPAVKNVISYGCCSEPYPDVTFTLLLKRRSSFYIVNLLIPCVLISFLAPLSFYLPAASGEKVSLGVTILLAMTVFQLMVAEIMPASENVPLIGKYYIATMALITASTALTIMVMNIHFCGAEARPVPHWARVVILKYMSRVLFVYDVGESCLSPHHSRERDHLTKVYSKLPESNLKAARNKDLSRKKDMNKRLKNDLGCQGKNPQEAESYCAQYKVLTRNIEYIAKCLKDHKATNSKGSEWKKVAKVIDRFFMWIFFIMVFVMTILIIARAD
T1 sequence (Q9GZZ6 25-450): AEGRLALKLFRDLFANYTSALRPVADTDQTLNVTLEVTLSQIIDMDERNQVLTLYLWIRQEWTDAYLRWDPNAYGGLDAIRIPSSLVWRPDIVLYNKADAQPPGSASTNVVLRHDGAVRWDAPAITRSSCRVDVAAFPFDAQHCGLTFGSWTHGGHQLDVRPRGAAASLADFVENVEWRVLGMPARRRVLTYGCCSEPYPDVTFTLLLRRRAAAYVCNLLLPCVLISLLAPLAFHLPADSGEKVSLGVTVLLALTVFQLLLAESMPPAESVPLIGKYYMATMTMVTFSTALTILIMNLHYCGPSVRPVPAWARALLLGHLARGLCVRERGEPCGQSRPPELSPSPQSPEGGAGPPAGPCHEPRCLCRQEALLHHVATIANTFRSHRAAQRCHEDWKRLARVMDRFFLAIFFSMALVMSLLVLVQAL
Type: cell-based
Protocol: Human embryonic kidney 293T (HEK293T) cells were cultured in high glucose DMEM medium supplemented with 10% FBS, sodium pyruvate and penicillin/streptomycin. Prior to transfection, cells were seeded at ˜80-90% confluence in 384-well fluorescence imaging plate reader (FLIPR) assay plates. After a 4 hour (hr) incubation, wells of cells were individually co-transfected with human α9α10 nAChR plus one of 20,000 clones from cDNA libraries encoding most all human proteins (Origene Technologies; Rockville, Md.; Broad Institute; Cambridge, Mass.) using Fugene HD (Promega; Madison, Wis.) according to the manufacture's protocol. After two days incubation, cells were washed three times with assay buffer (137 mM NaCl, 4 mM KCl, 2 mM CaCl2, 1 mM MgCl2, 5 mM glucose, 10 mM HEPES pH7.4) and loaded with Calcium5 dye (Molecular Devices; San Jose, Calif.) and 1.25 mM probenecid for 1 hr at room temperature (RT). After three washes, the plates were placed in the FLIPR stage.
To further characterize the regulation of α9α10 nAChR expression, HEK293T cells were co-transfected with α9α10 nAChR and each of CHAT, TMIE, TMEM100, TMEM132A, TMEM132C, TMEM132D, TMEM132E and TNFRSF10A individually and in combination (Table 2).

Row | Molecule | FLIPR Response (Fold/Baseline)
1 | B1 | 2.6 Fold/Baseline
2 | B2 | 2.6 Fold/Baseline
3 | B3 | 3.0 Fold/Baseline

Same assay, conditions: HEK293T co-transfected with α9α10 nAChR plus the named gene; 200 μM ACh, 180 s

Row | Molecule | FLIPR Response (Fold/Baseline)
4 | B1 | 0.4 Fold/Baseline
5 | B2 | 0.7 Fold/Baseline
6 | B3 | 0.6 Fold/Baseline

Same assay, conditions: HEK293T, 20,000 cDNA clones; 200 μM ACh

Row | Molecule | functional expression of co-transfected α9α10 nAChR in cDNA library screen
7 | B1 | enabled functional expression
8 | B2 | enabled functional expression
9 | B3 | enabled functional expression
